Assays:
Format in all cases: cell-based, mouse
NIH-3T3 cells [1] = test: Anchorage independent survival and proliferation (XTT assay); conditions: over-expression in NIH-3T3; vessels which prevent adherence
Method: A stably expressing clone designated 192.58 containing GEF-H1S was established in the mouse fibroblast cell line, NIH-3T3. The pRSV/Rc subcloned vector expresses the GEF-H1S protein in tissue culture cells.
The GEF-H1S clones were plated in tissue culture vessels which prevent adherence. […] The ability for cells to proliferate was measured using the tetrazolium salt XTT based assay (Roche Molecular Biochemicals Cat# 1465015) which measured only metabolically active cells in culture. Measurements were made over a time course.

NIH-3T3 cells [2] = test: In vitro transformation (foci) assay
NIH-3T3 cells [3] = test: Morphology and localization in transfected NIH-3T3 cells (EGFP fluorescence, F-actin and microtubule staining)
Method: To analyse the effect of GEF-H1 on cell morphology in fibroblasts, EGFP (enhanced green fluorescent protein) fusion constructs of GEF-H1S and a series of mutant alleles of the PAK4 phosphorylation sites in GEF-H1S were introduced into NIH-3T3 cells. Also constructed, was a dominant negative allele by mutating the DH domain of GEF-H1 resulting in GEF-H-QR312,313MG. In a p21-binding domain (PBD) assay this dominant-negative allele inhibited accumulation of Rac-GTP but not Cdc42-GTP in NIH-3T3 cells. The actin cytoskeleton was stained with coumarin-phallicidin to contrast F-actin structures of EGFP fluorescing cells by microscopy.
Induction of F-actin structures in fibroblasts, namely the formation of filopodia, lamellipodia, and stress fibres is due to signalling by the active forms of Cdc42, Rac, and Rho, respectively. Because PAK proteins and specifically PAK4 play a role in regulating F-actin based morphological structures, experiments were devised to determine whether PAK4-induced changes in cell morphology were mediated by regulation of GEF-H1S. Also co-expressed were EGFP-GEF-H1 constructs with various HA epitope-tagged PAK4 alleles in NIH-3T3 cells. Exogenous PAK4 was detected with an anti-HA antibody (red) and the actin cytoskeleton was stained with coumarin-phallicidin (blue). Although NIH-3T3 cells have low but detectable levels of endogenous PAK4 and GEF-H1 these were not activated under the conditions of the experiment.
Residues phosphorylated by PAK4 in GEF-H1S are conserved in the MT (“microtubule”) bound form of GEF-H1, “GEF-H1M.” GEF-H1M contains a zinc finger domain in its amino terminus that allows it to bind to microtubules. The role microtubule binding in determining the ability of PAK4 to control GEF-H1M activity was investigated. Studies were performed with GEF-H1M that allowed simultaneous examination of both MT (through EGFP-GEF-H1M labelling of MTs in vivo) and actin cytoskeleton (through F-actin staining with coumarin-phallicidin). Also studied, were changes in the MT cytoskeleton by co-staining with β-tubulin antibodies.
GEF-H1S alleles were transiently expressed in NIH-3T3 cells or simultaneously expressed with PAK4 alleles. The GEF-H1S alleles were retrieved from the pcDNA vector by restriction with EcoR1 and Xho1 and inserted into pEGFP-C1 (Clontech,USA Cat#6082-1) restricted with EcoR1 and Sal1. The resulting protein was a hybrid of the brightly fluorescent protein, green fluorescent protein (GFP). The effects on cell morphology were traced by staining of F-actin with coumarin phallacidin (Molecular Probes, USA, Cat. # C-606). […] See, Callow et al., 2002. This finding was consistent with GEF-H1S being a substrate for PAK4, because activated PAK4 is also localized to the Golgi apparatus.
NIH-3T3, 293T, A549, HCT116 and H1299 cells were maintained in Dulbecco's modified Eagles medium (DMEM) 10% Fetal Bovine serum (FBS), penicillin and streptomycin from Invitrogen (Carlsbad, Calif.). For transfection, cells were seeded at 10^5 cells ml-1 for NIH-3T3 and […] for both 293T and H1299 unless otherwise stated. Transfection reagents Lipofectamine 2000 (Invitrogen) or Fugene (Roche Molecular) were used at […] of plasmid DNA. Cellular extracts for immunoblotting were prepared in lysis buffer. For immunoprecipitation experiments lysates were incubated with Protein G beads (Pharmacia) linked with appropriate antibody, glutathione sepharose beads (Pharmacia) with appropriate GST fusion protein and streptavidin beads (Pierce) linked to appropriate biotinylated peptides. For immunofluorescence, coverslips were placed in 24 well cell culture vessels and seeded at the densities above. Transfections took place after 16 h and unless otherwise stated were maintained in Optimem or DMEM with 0.2% FBS for 24 h until fixation. Microscopy was performed on a Nikon E800 microscope with 60× objective (1.5NA). […]

[4] = GEF-H1 allele alone, majority of transfected cells
[5] = co-expressed with PAK4 allele PAK4
[6] = co-expressed with PAK4 allele PAK4K350,351A
[7] = co-expressed with PAK4 allele PAK4S474E

B1: GEF-H1S: novel GEF-H1 splice isoform, residues 1-921, lacking N-terminal zinc finger domain (SEQ ID NO. 2) (protein)
chain: MPVTRASQPRKPSSAQQQKAALLKNNTALQSVSLRSKTTIRERPSSAIYPSDSFRQSLLGSRRGRSSLSLAKSVSTTNIAGHFNDESPLGLRRILSQSTDSLNMRNRTLSVESLIDEAEVIYSELMSDFEMDEKDFAADSWSLAVDSSFLQQHKKEVMKQQDVIYELIQTELHHVRTLKIMTRLFRTGMLEELHLEPGVVQGLFPCVDELSDIHTRFLSQLLERRRQALCPGSTRNFVIHRLGDLLISQFSGPSAEQMCKTYSEFCSRHSKALKLYKELYARDKRFQQFIRKVTRPAVLKRHGVQECILLVTQRITKYPLLISRILQHSHGIEEERQDLTTALGLVKELLSNVDEGIYQLEKGARLQEIYNRMDPRAQTPVPGKGPFGREELLRRKLIHDGCLLWKTATGRFKDVLVLLMTDVLVFLQEKDQKYIFPTLDKPSVVSLQNLIVRDIANQEKGMFLISAAPPEMYEVHTASRDDRSTWIRVIQQSVRTCPSREDFPLIETEDEAYLRRIKMELQQKDRALVELLREKVGLFAEMTHFQAEEDGGSGMALPTLPRGLFRSESLESPRGERLLQDAIREVEGLKDLLVGPGVELLLTPREPALPLEPDSGGNTSPGVTANGEARTFNGSIELCRADSDSSQRDRNGNQLRSPQEEALQRLVNLYGLLHGLQAAVAQQDTLMEARFPEGPERREKLCRANSRDGEAGRAGAAPVAPEKQATELALLQRQHALLQEELRRCRRLGEERATEAGSLEARLRESEQARALLEREAEEARRQLAALGQTEPLPAEAPWARRPVDPRRRSLPAGDALYLSFNPPQPSRGTDRLDLPVTTRSVHRNFEDRERQELGSPEERLQDSSDPDTGSEEEGSSRLSPPHSPRGETLAETWTRDFTRMQDIPEETESRDGEAVASES
anchorage independent survival and proliferation (NIH-3T3 cells [1]): anchorage independent | foci induction (NIH-3T3 cells [2]; NIH-3T3 cells): able to induce foci | effect on foci in co-transformation with activated Ras (NIH-3T3 cells [2]; co-transformation with activated Ras, titrations): synergizes with activated Ras | F-actin (NIH-3T3 cells [3]; [4]): occassional stress fibers | Microtubule (NIH-3T3 cells [3]; [4]): radial array | cell morphology (NIH-3T3 cells [3]; [4]): polarized | subcellular localization (NIH-3T3 cells [3]; GFP fusion transiently expressed in NIH-3T3 cells): localized at the perinuclear region of the Golgi apparatus | F-actin (NIH-3T3 cells [3]; [5]): extreme filopodia | Microtubule (NIH-3T3 cells [3]; [5]): radial array | cell morphology (NIH-3T3 cells [3]; [5]): contracted | F-actin (NIH-3T3 cells [3]; [6]): stress fibers | Microtubule (NIH-3T3 cells [3]; [6]): radial array | cell morphology (NIH-3T3 cells [3]; [6]): elongated | F-actin (NIH-3T3 cells [3]; [7]): peripheral lammellipodia | Microtubule (NIH-3T3 cells [3]; [7]): disorganized | cell morphology (NIH-3T3 cells [3]; [7]): polarized
